Data published in patent publication US20240269235A1 (Gilead, published 2024).
Changes are numbered by the printed parent chain.

T1: IL-2Rαβγ on KHYG-1 cells (human NK leukemia cell line that expresses IL-2Rα, β, and γ) (human, UniProt P01589 22-272; P14784 27-551; P31785 23-369)
T1 sequence (looked up) 1: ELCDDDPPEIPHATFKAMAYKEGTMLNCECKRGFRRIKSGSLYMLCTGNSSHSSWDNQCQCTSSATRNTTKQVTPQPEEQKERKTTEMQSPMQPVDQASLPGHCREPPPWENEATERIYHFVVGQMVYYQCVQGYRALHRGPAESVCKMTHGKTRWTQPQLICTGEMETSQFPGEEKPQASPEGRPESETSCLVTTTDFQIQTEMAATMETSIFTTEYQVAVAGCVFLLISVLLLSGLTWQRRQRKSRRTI
T1 sequence (looked up) 2: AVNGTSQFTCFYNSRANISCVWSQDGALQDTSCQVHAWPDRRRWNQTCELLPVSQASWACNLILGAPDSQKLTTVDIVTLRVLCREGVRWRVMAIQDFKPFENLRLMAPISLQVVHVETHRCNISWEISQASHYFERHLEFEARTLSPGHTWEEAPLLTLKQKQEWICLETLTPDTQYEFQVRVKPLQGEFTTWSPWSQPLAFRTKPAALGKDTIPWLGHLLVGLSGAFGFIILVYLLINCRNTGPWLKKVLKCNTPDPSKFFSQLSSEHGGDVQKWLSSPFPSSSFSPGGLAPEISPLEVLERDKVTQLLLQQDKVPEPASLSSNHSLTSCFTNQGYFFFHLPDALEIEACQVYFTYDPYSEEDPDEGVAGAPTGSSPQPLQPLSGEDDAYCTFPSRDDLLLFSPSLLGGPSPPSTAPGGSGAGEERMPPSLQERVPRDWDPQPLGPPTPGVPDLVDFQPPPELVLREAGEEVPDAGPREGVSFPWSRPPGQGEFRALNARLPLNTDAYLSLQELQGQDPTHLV
T1 sequence (looked up) 3: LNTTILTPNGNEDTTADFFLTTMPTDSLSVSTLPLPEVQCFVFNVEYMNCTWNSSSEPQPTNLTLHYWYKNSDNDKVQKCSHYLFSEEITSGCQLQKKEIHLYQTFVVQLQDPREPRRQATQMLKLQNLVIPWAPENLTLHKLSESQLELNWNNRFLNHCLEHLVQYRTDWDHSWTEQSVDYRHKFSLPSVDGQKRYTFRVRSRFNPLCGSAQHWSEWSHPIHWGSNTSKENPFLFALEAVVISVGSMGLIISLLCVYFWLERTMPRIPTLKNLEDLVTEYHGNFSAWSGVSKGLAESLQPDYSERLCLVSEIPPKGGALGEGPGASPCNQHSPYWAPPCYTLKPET

T2: IL-2Rβ and IL-2Rγ on Ba/F3 cells engineered to express murine IL-2Rβ (murine, UniProt P16297 27-539; P34902 23-369)
T2 sequence (looked up) 1: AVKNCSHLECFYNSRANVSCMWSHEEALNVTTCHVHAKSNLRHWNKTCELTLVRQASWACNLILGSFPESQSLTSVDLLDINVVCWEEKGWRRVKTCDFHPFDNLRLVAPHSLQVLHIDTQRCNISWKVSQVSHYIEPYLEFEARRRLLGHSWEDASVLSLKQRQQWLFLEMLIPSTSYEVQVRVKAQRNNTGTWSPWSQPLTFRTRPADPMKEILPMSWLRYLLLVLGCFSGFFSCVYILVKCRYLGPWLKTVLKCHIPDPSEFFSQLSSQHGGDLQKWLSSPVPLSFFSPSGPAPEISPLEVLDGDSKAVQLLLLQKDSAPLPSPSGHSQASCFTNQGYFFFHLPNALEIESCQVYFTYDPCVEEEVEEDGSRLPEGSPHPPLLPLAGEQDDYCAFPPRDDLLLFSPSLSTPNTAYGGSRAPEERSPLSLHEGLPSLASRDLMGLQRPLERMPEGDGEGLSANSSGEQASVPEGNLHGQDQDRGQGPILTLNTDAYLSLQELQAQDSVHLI
T2 sequence (looked up) 2: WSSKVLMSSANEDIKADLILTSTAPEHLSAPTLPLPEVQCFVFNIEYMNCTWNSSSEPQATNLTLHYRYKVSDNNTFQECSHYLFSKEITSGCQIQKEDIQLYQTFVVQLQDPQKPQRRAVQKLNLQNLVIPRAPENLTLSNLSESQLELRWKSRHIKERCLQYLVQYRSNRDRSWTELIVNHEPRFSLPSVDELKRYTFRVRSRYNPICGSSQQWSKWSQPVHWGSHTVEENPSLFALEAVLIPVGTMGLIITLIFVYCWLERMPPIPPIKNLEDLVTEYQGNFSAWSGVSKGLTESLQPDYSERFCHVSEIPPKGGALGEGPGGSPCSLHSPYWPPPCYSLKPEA

T3: trimeric murine IL-2 receptor (IL-2Rα, IL-2Rβ, and IL-2Rγ) on CTLL-2 cells (murine, UniProt P01590 22-268; P16297 27-539; P34902 23-369)
T3 sequence (looked up) 1: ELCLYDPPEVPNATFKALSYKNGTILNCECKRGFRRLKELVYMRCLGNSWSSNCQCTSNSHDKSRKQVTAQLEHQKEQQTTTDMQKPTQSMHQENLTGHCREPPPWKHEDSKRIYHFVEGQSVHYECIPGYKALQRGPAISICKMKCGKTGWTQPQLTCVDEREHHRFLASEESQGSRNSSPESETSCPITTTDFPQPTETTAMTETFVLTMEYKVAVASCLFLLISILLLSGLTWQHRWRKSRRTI
T3 sequence (looked up) 2: T2 sequence (looked up) 1
T3 sequence (looked up) 3: T2 sequence (looked up) 2

T4: IL-2Rα (recombinant IL-2 receptor α, R&D Systems Cat #: 223-2A/CF), biotinylated (human, UniProt P01589 22-213, limits assumed, biotinylated using sulfo-NHS-LC-LC-Biotin)
T4 construct: Bought reagent; also used here as the IL-2Rα partner of the in-silico analysis of PDB 2B5I (another construct); also called IL-2RA; CD25
T4 sequence (looked up): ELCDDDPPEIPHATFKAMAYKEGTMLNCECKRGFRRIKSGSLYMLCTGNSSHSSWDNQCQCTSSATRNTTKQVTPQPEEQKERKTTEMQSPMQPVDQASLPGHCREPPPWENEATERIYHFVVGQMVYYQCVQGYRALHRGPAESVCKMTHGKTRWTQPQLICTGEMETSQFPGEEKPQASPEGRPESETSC

B1: Fc-IL-2v heterodimer 107.46 (hIL-2v_Δ1-5_F42A_E62A_C125S) (Fc fusion)
chain 1: ESKYGPPCPPCPAPEAAGGPSVFLFPPKPKDTLMISRTPEVTCVVVDVSQEDPEVQFNWYVDGVEVHNAKTKPREEQFNSTYRVVSVLTVLHQDWLNGKEYKCKVSNKGLPSSIEKTISKAKGQPREPQVYTLPPSQEEMTKNQVSLWCLVKGFYPSDIAVEWESNGQPENNYKTTPPVLDSDGSFFLYSRLTVDKSRWQEGNVFSCSVMHEALHNHYTQKSLSLSLGGGGGSGGGGSGGGGSGGGGSSTKKTQLQLEHLLLDLQMILNGINNYKNPKLTRMLTAKFYMPKKATELKHLQCLEEALKPLEEVLNLAQSKNFHLRPRDLISNINVIVLELKGSETTFMCEYADETATIVEFLNRWITFSQSIISTLT
chain 2: ESKYGPPCPPCPAPEAAGGPSVFLFPPKPKDTLMISRTPEVTCVVVDVSQEDPEVQFNWYVDGVEVHNAKTKPREEQFNSTYRVVSVLTVLHQDWLNGKEYKCKVSNKGLPSSIEKTISKAKGQPREPQVYTLPPSQEEMTKNQVSLSCAVKGFYPSDIAVEWESNGQPENNYKTTPPVLDSDGSFFLVSRLTVDKSRWQEGNVFSCSVMHEALHNRFTQKSLSLSLGK
notes: hIgG4 knob-in-hole Fc heterodimer, one IL-2v on the knob chain
B2: Fc-IL-2v heterodimer 114.46 (hIL-2v_Δ1-5_R38G_F42A_E62A_C125S) (Fc fusion)
chain 1: B1 chain 1 with R281G
chain 2: B1 chain 2
notes: as for B1
B3: Fc-IL-2v heterodimer 113.46 (hIL-2v_Δ1-5_R38G_E62A_C125S) (Fc fusion)
chain 1: B1 chain 1 with R281G, A285F
chain 2: B1 chain 2
notes: as for B1
B4: Fc-IL-2v heterodimer 108.46 (hIL-2v_Δ1-5_F42A_Y45G_E62A_C125S) (Fc fusion)
chain 1: B1 chain 1 with Y288G
chain 2: B1 chain 2
notes: as for B1
B5: mouse surrogate Fc-IL-2 heterodimer 165.250 (IL2v_C140A), native IL-2Rα binding interface (Fc fusion)
chain 1: GPTIKPCPPCKCPAPNAAGGPSVFIFPPKIKDVLMISLSPIVTCVVVDVSEDDPDVQISWFVNNVEVHTAQTQTHREDYNSTLRVVSALPIQHQDWMSGKEFKCKVNNKDLGAPIERTISKPKGSVRAPQVYVLPPPEEEMTKKQVTLWCMVTDFMPEDIYVEWTNNGKTELNYKNTEPVLDSDGSYFMYSKLRVEKKNWVERNSYSCSVVHEGLHNHHTTKSFSRTPGGGGGSGGGGSGGGGSGGGGSQQQHLEQLLMDLQELLSRMENYRNLKLPRMLTFKFYLPKQATELKDLQCLEDELGPLRHVLDLTQSKSFQLEDAENFISNIRVTVVKLKGSDNTFECQFDDESATVVDFLRRWIAFAQSIISTSPQ
chain 2: GPTIKPCPPCKCPAPNAAGGPSVFIFPPKIKDVLMISLSPIVTCVVVDVSEDDPDVQISWFVNNVEVHTAQTQTHREDYNSTLRVVSALPIQHQDWMSGKEFKCKVNNKDLGAPIERTISKPKGSVRAPQVYVLPPPEEEMTKKQVTLSCAVTDFMPEDIYVEWTNNGKTELNYKNTEPVLDSDGSYFMVSKLRVEKKNWVERNSYSCSVVHEGLHNHHTTKSFSRTPGK
B6: mouse surrogate Fc-IL-2v heterodimer 167.250 (IL2v_F56A_C140A) (Fc fusion)
chain 1: B5 chain 1 with F282A
chain 2: B5 chain 2
B7: mouse surrogate Fc-IL-2v heterodimer 166.250 (IL2v_F56A_Y59A_L86G_C140A) (Fc fusion)
chain 1: B5 chain 1 with F282A, Y285A, L312G
chain 2: B5 chain 2
B8: mouse surrogate Fc-IL-2v heterodimer 168.250 (IL2v_F56A_E76A_C140A) (Fc fusion)
chain 1: B5 chain 1 with F282A, E302A
chain 2: B5 chain 2
B9: Fc-IL-2v heterodimer 96.46 (hIL-2v_Δ1-5_Y45G_E61A_C125S) (Fc fusion)
chain 1: B1 chain 1 with A285F, Y288G, E304A, A305E
chain 2: B1 chain 2
notes: as for B1
B10: Fc-IL-2v heterodimer 105.46 (hIL-2v_Δ1-5_F42A_Y45A_L72G_C125S) (Fc fusion)
chain 1: B1 chain 1 with Y288A, A305E, L315G
chain 2: B1 chain 2
notes: as for B1
B11: Fc-IL-2v heterodimer 99.46 (hIL-2v_Δ1-5_R38G_E61A_C125S) (Fc fusion)
chain 1: B1 chain 1 with R281G, A285F, E304A, A305E
chain 2: B1 chain 2
notes: as for B1
B12: Fc-IL-2v heterodimer 98.46 (hIL-2v_Δ1-5_R38G_Y45G_C125S) (Fc fusion)
chain 1: B1 chain 1 with R281G, A285F, Y288G, A305E
chain 2: B1 chain 2
notes: as for B1

Target: T1, IL-2Rαβγ on KHYG-1 cells (human NK …)
Assay: cell-based or functional assay

Binder	Proliferation of KHYG-1 NK cells, EC50
B1	0.235 nM
B2	0.336 nM
B3	0.344 nM
B4	0.191 nM

Target: T2, IL-2Rβ and IL-2Rγ on Ba/F3 cells …
Assay: cell-based or functional assay

Binder	Proliferation EC50, Ba/F3 cells
B5	4.1 nM
B6	5.2 nM
B7	9.5 nM
B8	20.6 nM

Target: T3, trimeric murine IL-2 receptor (IL-2Rα, …)
Assay: cell-based or functional assay

Binder	pSTAT5 EC50, STAT5 activation of CTLL-2 cells
B5	2 pM
B6	0.12 nM
B7	5.4 nM
B8	63.1 nM

Target: T3, trimeric murine IL-2 receptor (IL-2Rα, …)
Assay: cell-based or functional assay
Remark: another data set of the same source

Binder	STAT5 activation of CTLL-2 cells, EC50
B9	0.4 nM
B1	25.5 nM
B2	61.2 nM
B10	7.7 nM
B11	0.03 nM
B3	3.1 nM
B4	41.4 nM
B12	0.2 nM

Target: T4, IL-2Rα (recombinant IL-2 receptor α, …)
Assay: SPR (Biacore), CM4 chip, biotinylated receptor on neutravidin
Description: (§1) Fc-IL-2 variant binding data was collected on a Biacore platform using a CM4 chip. Neutravidin was immobilized using standard amine coupling methods and used to capture biotinylated receptors. The source, preparation and immobilization of biotinylated IL-2Rα and IL-2Rβγ heterodimer was as described in Example 4. Proleukin was used as a comparator. Fc-IL-2 variants and Proleukin were injected at various concentrations over these surfaces. Kinetic data obtained from these injections was used to extract kₒₙ and koff to calculate KD (KD=Koff/kₒₙ).

Binder	Kd
B9	56000 nM
B1	> 60000 nM
B2	> 60000 nM
B10	> 60000 nM
B11	39000 nM
B12	59000 nM

Target: T5, IL-2Rβγ heterodimer, custom biotinylated Fc fusion protein (human IL-2Rβ 27-240-Fc-FLAG / human IL-2Rγ … (human, site-specific biotinylation at the AviTag))
T5 construct: Extracellular regions fused to IgG1 knob-in-hole Fc subunits with tags; also called IL-2 receptor βγ heterodimer; Fc-IL-2Rβγ
Assay: as above
Description: as §1

Binder	Kd
B9	0.064 nM
B1	0.069 nM
B2	0.076 nM
B10	0.063 nM
B11	0.065 nM
B3	0.072 nM
B4	0.062 nM
B12	0.056 nM
